Source: the RNAGym collection of RNA variant scans (doi:10.1073/pnas.2313332121)
This sample holds only a part of the variants without activity.

B1: TPR 5TU (parent)
chain: GGAUCUUCUCGAUCUAACAAAAAAGACAAAUCUGCCACAAAGCUUGAGAGCAUCUUCGGAUGCAGAGGCGGCAGCCUUCGGUGGCGCGAUAGCGCCAACGUUCUCAACUAUGACACGCAAAACGCGUGCUCCGUUGAAUGGAGUUUAUCAUG

Variants of: B1
Experiment: polymerase ribozyme fitness, log enrichment relative to wild type (log ratio); higher = more active; in vitro selection for triplet polymerase activity
In short: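 Mutant libraries of both subunits of a heterodimeric triplet polymerase ribozyme were PCR-built, transcribed, and selected once in triplicate, with frozen incubation at −7 °C and capture of gel-excised extended constructs on streptavidin beads before RT-PCR. Illumina sequencing of input and output libraries was filtered to genotypes with ≥10 input reads and ≥1 read per output. Fitness is the logarithm of genotype enrichment over wild-type enrichment, using inverse-variance-weighted replicate averages. The logarithm is base 2.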

Variant	polymerase ribozyme fitness (log ratio)
GGAUCGUCUCAAUCUAACAAAAAAGACAAAUCUGCCACAAAGCUUGAUAUCAUCUUCGGAUGCAGGGGCGGCAGCCUUCGGUGGCGCGAAAGCGCCAACUUACUCAACUAUGACACGCAAACCGCGUGCUCCGUUGAAUGGAGUUUAUCAUG [U6G G11A G48U G50U A66G U90A G100U U102A A122C]	≤ -4.2
GGAUCGUCUCGAUCUAACAAAAAAGACAAAUCUGCCACAAAGCUUGAGAGCAUGUUCGGAUGCAGAGGCGGCUGCCUUCGGUGGCGCGAUAGCGCCAACGUACUCGACUAUGACACGCAAAACGCGGGCUCGGUGGAAUGGAGUUUAUCAUG [U6G C54G A73U U102A A106G U127G C132G U135G]	≤ -4.2
GGAUCGUCUCGAUCUAACAAAAAAGACAAAUCUGCCACAAAGCUUGAGAGCAUCUUCGGAUGCAGAGGUGGCAGCCUUCGGUGACGCGAUAGCGCCAACGUUCUCCACUAUGACACGCAAAACGCGUGCUCCGUUGAAUGGAGUUUAUCAUG [U6G C69U G84A A106C]	-2.47
GGAUCGUCUCGAUCUAACAAAAAAGACAAAUCUGCCACAAAGCUUGAGAGCAUCUUCGGAUGCAGAGGCGGCAGGCUUCGGUGGCGCGAAAUCGCCAACGUUCUCAACUAUGACACGCAAAACGCGUGCUCCGUUGAAUGGAGUUUAUCAUG [U6G C75G U90A G92U]	≤ -4.2
GGAUCGUCUCGAUCUAACAAAAAAGACAAAUCUGCCACAAAGCUUGAGAGCAUCUUCGGAUGCAGAGGCGGCAGCCUUCGGUGGCGCGAUAGAGCCAACGUUCUCAACUAUGACACGCAAAACGCGUGCUCCGUUGAAUGGAGUUUAUCAUG [U6G C93A]	-1.75
GGAUCGUCUCGAUCUAACAAAAAAGACAAAUCUGCCACAAAGCUUGAGAGCAUCUUCGGAUGCAGAGGCGGCAGCCUUCGGUGGCGCGAUAGGGCCAACGUUCUCAACUAUGACACGCAAAACGCGUGCUCCGUUGAAUGGAGUUUAUCAUG [U6G C93G]	-3.18
GGAUCGUCUGGAUCUAACAAGAAAGACAAAUCUGCCACAAAGCUUGAGAGCAUCUUCGGAUGCAGAGGCGACAGCUUUCGGUGGAGCGAUAGCGCCAACGUUCUCAACUAUGACACGCAAAACGCGUGCUCCGUUGAAUGGAGUUUAUCAUG [U6G C10G A21G G71A C76U C85A]	≤ -4.2
GGAUCGUCUCGAUCUAACAAAAAAGACAAAUCUGCCACAAAGCUUAAGAGCAUCUCCGGAUGCAGAGGCGGCAGCGUUCGCUGGCGCGAUCGCGCCAACGUUCUCGACUAUGACACGCAAAACGCGUGCUCCGUUGUAUGGAGCUUAUCAAG [U6G G46A U56C C76G G81C A91C A106G A137U U144C U151A]	≤ -4.2
GGAUCGUCUCGAUCUAACAAAAAAGACAAAUCUGCCACAAAGCUUGAGAGCAUCUUCGGAUGCAGAGGCGGCAGCCUUCGGUGGAGCGAUAGCGCCAACGUUCUCAACUAUGACACGCAAAACGGGUGCUCCGUUGAAUGGAGUUUAUCAUG [U6G C85A C125G]	-0.955
GGAUCGUCUCGAUCUAACAAAAAAGACAAAUCUGCCACAAAGCUUGAGAGCAUCUUGGGAUGCAGAGGCGGCAGCCUUCGGUGGUGCGAUAGCGCCAUCGUUCUCAACUAUGACACGCAAAACGCGUGCUCCGUUGAAUGGAGUUUAUCAUG [U6G C57G C85U A98U]	-1.17
GGAUCGUCUCGAUCUAACAAAAAAGACAAAUCUGCCACAAAGCUUGAGAGCAUCUUCGGAUGUAGAGGCGGCAGCCUUCGGUUGCGCGAUAGCGCCAUCGUUCUCAACUAUGACACGCAAAUCGCGUGCUCCGUUGAAUGGAGUUUAUCAUG [U6G C63U G83U A98U A122U]	-0.875
GGAUCGUCUCGAUCUAACAAAAAAGAAAAAUCCGCCACAAAGCUUGAGAGCAUCUUCGGAUGCAGAGGCGGCAGCCUUCGGUGGAGCAAUAGCGCCAACGUUCUCAACUAUGACACGCAAAACGCGUGCUCCGCUGAAUGGAGUUUAUCAUG [U6G C27A U33C C85A G88A U134C]	≤ -4.2
GGAUCGUCUGGAUCUAACAAAAAAGACAAAUCUGCCACAAAGCUUGAGAGCAUCUUCGGAUGCAGAGGCGGCAGCCUUCGGUGGCGGGAUAGCGCCAACGUUCUCAACUAUGACACGCAAAACGCGUGCUCCGUUGAAUGGAGUUUAUCAUG [U6G C10G C87G]	≤ -4.2
GGAUCGUCUCGAUCUAACAAAAAAGACAAAUCUCCCACAAAGCUUGAGAGCUUCUUCGGAUGCAGAGGCGGCAGCCUUCGGUGGCGCGGUAGAGCCAACGUUCUCAUCUAUGACUCGCAAAACGCGUGCUCCGUUGAAUGGAGUUUAUCCUG [U6G G34C A52U A89G C93A A107U A115U A150C]	≤ -4.2
GGAUCGUCUCGAUCUAACAAAAAAGACAAAUCUGUCACAAAGCUUGAGAGCAUCUUCCGAUGCAGAGGCGGCAGCCUUCGGUGGCGCGAUAGCGCUAACGUUCUCAACUAUGCCACGCAAAACGCGUGCUCCGUCGAAUGGAGUUUUUCAUG [U6G C35U G58C C96U A113C U135C A147U]	≤ -4.2
GGAUCGUCUUGUUCUAACAAAAAAGACAAAUCGGCCUCAAAGCUUGAGAGCAUCUUCGGAUGCAGAGGCGGCAGCCUUCGGUGGCGCGAUAGCGACAACGUUCUCAACUAUGACACGCAAAACGCGUGCUCCGUAGAAUGUAGCUUAUCAUG [U6G C10U A12U U33G A37U C95A U135A G141U U144C]	≤ -4.2
GGAUCGUCUGGAUCUAACAAAAAAGACAAAUCUGCCACAAAGCUUGAGACCAUCAUCAGAUGCAGAGGCGGGAGCCUUCGGUGGCGCGAUAGCGUUAACGUUCUCAACUAUGACACGCAAAACGCGUGCUCCGUUGAAUGGAGGUUAACAUG [U6G C10G G50C U55A G58A C72G C95U C96U U144G U148A]	≤ -4.2
GGAUCGUCUCGAUCUAACAAAAAAGACAAAUCUGCCACAAAGCUUGAGAGCAUCUUCGGAUGCAGAGGCGGCAGUCUUCGGUGGCGCGAUAGCGCCAACGUUCUCAACUAUGACACGCAAAACGCGUGCUCCGUUGAAUGGAGUUUAUCAUG [U6G C75U]	0.374
GGAUCGUCUCGAUCUAACAAAAAAUACAAAUCUGCCACAAAGCUUGAGACCAUCUUCGGAUGCAGAGGCGGCAGCCUUCGGUGGCGCGAUAACGCCAACGUUCUCAACUAUGACACGCAAAACGCGUGCUCCGUUGAAUGGAGUUUAUCAUG [U6G G25U G50C G92A]	≤ -4.2
